This series can be described thus: yeast display, Sf9 membrane polyspecificity reagent, FACS + sequencing; frameworks hold sequencing errors. The procedure, abridged: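 Genes from sorted yeast were amplified by colony PCR, read by MiSeq 2 × 250 sequencing and filtered on CDR length. These cells carried a synthetic nanobody library in Saccharomyces cerevisiae BJ5465 and were sorted by FACS into low and high (top ~1%) gates on anti-HA and streptavidin fluorescence. Polyreactivity is labelled according to the gate of origin.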
As to “QVQLVESGGGLVQAGGILRLSCAASGSNFGYYVMGWYRQAPGKERELVAGISTGGSTYYADSVKGRFTISRDNAKNTVYLQMNSLKPEDTAVYYCAADYTLSYWGFVYWGQGTQVTVSS”, the “polyreactivity (PSR sort gate)” value is reported as “low polyreactivity”.
For the sequence “QVQLVESGGGLVQAGGILRLSCAASGSTFESNTMGGYRQAPGKERELVAAISYSGGRTYYADSVKGRFTISRDNAKNTVYLQMNSLKPEDTAVYYCAARWSVSYHYWGQGTQVTVSS”, the “polyreactivity (PSR sort gate)” value is “high polyreactivity”.
In the case of “QVQLVESGGGLVQAGGILRLSCAASGSTFVPNTMAWYRQAPGKERELVAAITYSGGSTYYADSVKGRFTISRDNAKNTVYLQMNSLKPEDTAVYYCAAEGTTWYYDMDYWGQGTQVTVSS” it was “low polyreactivity”; in that of “QVQLVESGGGLVQAGGILRLSCAASGSTLGYYAMGWYRQAPGKERELVAAISWSGGRTYYADSVKGRFTISRDNAKNTVYLQMNSLKQEDTAFYYCNALNRTHYTGSDFYSWGQGTQVTVSS”, “high polyreactivity”.
In the case of “QVQLVESGGGLVQAGGILRLSCAASGYTFYFYAMGWYRQAPGKERELVAAITGGGTTSYADSVKGRFTISRDNAKNTVYLQMNSLKPEDTAVYYCNVLFADKSDYWGQGTQVTVSS” it was “low polyreactivity”.
Next, “QVQLVESGGGLVQAGGILRLSCASSGSTFPTNAMGWYTQAPGKERELVAAISSSGGRTYYADSVKGRFTISRDNAKNTVDLQMNSLKPEDTAVYSCAAVWWRAYAVRMYYWGQGTQVTVSS”: “high polyreactivity”; “QVQLVESGGGLVQAGGILRLSCDASGFTFGYYTMGWYRQAHGKEREFVAAITGGSGSTYYADSVKGRFTISRDNAKNTVYLQMNSLKPEDTAVYYCAASIWRGLTPLLIGFDYWGQGTQVTVSS”: “high polyreactivity”.
In the case of “QVQLVESGGGLVQAGGILRLSCSASGRIFQFYAMGWYRQAPGKERELVAGISWSGGSTNYADSVKGRFTISRDNAKNTVYLQMNSLKPEDSAVYYCNVDLYNWRGDSTGYDYWGQGTQVTVSS”, the “polyreactivity (PSR sort gate)” value was “low polyreactivity”.
For the sequence “QVQLVESGGGLVQAGGILRLSWAASGRTFRYYAMGWYRQAPGKDREFVAAISWSGGSTYYADSVKGRFTISRDNAKNTVYLQMNSLKPEDTAVFYCAAESIYTWGIRGAYWGQGTQVTVSS”, the “polyreactivity (PSR sort gate)” value is recorded as “high polyreactivity”.
In the case of “QVQLVESGGGLVQAGGILSLSCAASGIIFYTYAMGWYRQAPGKERELVATISWDVDSTNYADSVKGRFTISRDNAKNTVYLQMNSLKPEDTAVYYCAVDYTFDSYWYWVDYYEYGYWGQGTQVTVTS” it was “high polyreactivity”.
Regarding “QVQLVESGGGLVQAGGILSLSCAASGLIFRKNAKGWYRQAPGKEMELVAAISGRGGITYYADSVKGRFTISRDNAKNTVYLQMNSLKPEDTAVYYCATRFYRPRDGLYDYWGHGTQVTVSS”, the “polyreactivity (PSR sort gate)” value is reported as “high polyreactivity”.
As to “QVQLVESGGGLVQAGGILSLSCAASGNIFAYNAMGWYRQAPGKERELVAAITDSGGNTFYADSVKGRFTISRDNAKNTVYLQMISVKPEDTAVYYCAADPDGWGFVYPRYVSWGQGTQVTVSS”, the “polyreactivity (PSR sort gate)” value is “low polyreactivity”.
Next, “QVQLVESGGGLVQAGGNLRLSCAASGFKFTSYAMGCYIQAPGKERELVAAISTSGDRTYYADSVKGRFTISRDNAKNTVYLQMNSLQPEDTAVYYSAVVRPRSVVRYDSWGQGTQVTVSS”: “high polyreactivity”; “QVQLVESGGGLVQAGGRHRLSCAASGFIFHVYAMGWYRQAPGKERELVAAISSGGSTYYADSVKGRFTISRDNAKNTVYLQMNSLKPEDTAVYYCNGARSRYRYRYDYWGQGTQVTVSS”: “high polyreactivity”; “QVQLVESGGGLVQAGGRLLLSCAASGSTFTRNAMGWYRPAPGKERELVAAISSSGSRTYYADSVKGRFTISRDNAKNTVYLQMNSLIPADTAVYYCNKTKHSYLYTDDDYWGQGTQVTVSS”: “high polyreactivity”.
On to “QVQLVESGGGLVQAGGRLRISCAASGFTFEYNDMGWYRQAPGKERELVASISYDSDSTYYADSVKGRFTISRDNAKNTVYLQMNSLKPEDTAVYYCNAGSSYHEYGYWGQGTQVTVSS”, for which the “polyreactivity (PSR sort gate)” value is “high polyreactivity”.
As to “QVQLVESGGGLVQAGGRLRISCAASGRIFTYNTLGWSRQEPGKERELVAAIRTGGSTNYADSVKGRFTISRDNAKITVNLQMNSLKPEDTAVSYCNTVRHSTSDYWYDFWGQGTQVTLSS”, the “polyreactivity (PSR sort gate)” value is “low polyreactivity”.
Next, “QVQLVESGGGLVQAGGRLRISCAASGRTFGHYAMGWYRQAPGKQRELVAAINRSGGITYYADSVRGRFTISRDNAKNTVYLQMNSLKPEDPAVDYCAAASPGRYDYWGQGTQETVSS”: “high polyreactivity”; “QVQLVESGGGLVQAGGRLRISCAASGSIFGTYTMGWYRLAPGEERELVAAITSDGRTYYADSVKGRFTISRDNAKNTVYLQMNSLKPEDTAVYYCAADSSGYYWFNYWGQGTQVTVSS”: “low polyreactivity”.
In the case of “QVQLVESGGGLVQAGGRLRLICAASGRIFYSYAMGWYRQAPGKERELVAAISFSVGSTYYADSVKGRFTISRDNAKNTVYLQMNSLKPEDTAVYYCAASLGFPGYEYWGQGTQVTVSS” it was “low polyreactivity”; in that of “QVQLVESGGGLVQAGGRLRLICDASGRIFYRYAIGWYRQAPGKERELVAVITSSGGRTYYADSVKGRFTISRDTAKNTVYLPMNSLKPEDTAVYYCTAYVRRIVRSYYWGQGTQVTVSS”, “high polyreactivity”; in that of “QVQLVESGGGLVQAGGRLRLISAASGSIFYYNAMGWYRQAPGKERELVAAISWSADSTYYADSVKGRFTISRDNAKNTVYLQMNSLKPEDSAAYYCNTDLVPWTEYWYDYWGQGTQVTVSS”, “low polyreactivity”.
In the case of “QVQLVESGGGLVQAGGRLRLRCAASGFTFRYNAMGCNRQAPGKERELVATISSGASTYYADSVKGRFTISRDNAKNTVYFQMNSLIPVDSAVYYCAADDLGLWFYSGVDDYYYCGQGTQVTVSS” it was “low polyreactivity”; in that of “QVQLVESGGGLVQAGGRLRLRCAASGSTFSYYAMGWYRQAPGKERELVADISSGGTTNYADSVKGRFTISRDNAKNTVYLQMNSLKPEDTSVYYCNRRYSYYDGFDYWGQGTQVTVSS”, “low polyreactivity”; in that of “QVQLVESGGGLVQAGGRLRLSCAAAGSTFDGNAMGWYRQAPGKERELVADIDSIGGSTYYADSVKGRFTISRDNAKNTVYLQMNSLKPEDTAVYYCADRRFDTALVLYDYWGQGTQVTVSS”, “low polyreactivity”.
With “QVQLVESGGGLVQAGGRLRLSCAASAFIFVTYAMGCYRQAPGKERELVAAITNSGGTTYYADSVKGRFTISRDNAKNTVYLQMNSLKPEDTAVYYCNTEDFFNVPEMDSWGQGTQVTVSS”, the “polyreactivity (PSR sort gate)” value was “low polyreactivity”.
Next, “QVQLVESGGGLVQAGGRLRLSCAASGFIFKGYAKGWYRQAPGKERELVAAISYSGGNTYYADSVKGRFTISRDNAKNTVYLQMNSLKPEDTAVYYCDVRKRKVLGMYYWGQGTQVTVSS”: “high polyreactivity”; “QVQLVESGGGLVQAGGRLRLSCAASGFIFPHYAMGWYRQAPGKDRELVAAITWSGSSTYYADSVKGRFTISRDNAKNTVYLQMNSLKPEDTAVYYCYADYRLWPTSRYRYGYWGQGTQVTVTS”: “high polyreactivity”; “QVQLVESGGGLVQAGGRLRLSCAASGFIFSYYAMAWYIQAPGKERELVAAISSAGSTYYADSVKGRFTISRDNAKNTVYLQMNSLKPEDTAVYYCAAAIWYIKLYFVRRTEHGYWGQGTQVTVSS”: “low polyreactivity”.
Consider “QVQLVESGGGLVQAGGRLRLSCAASGFILATNAMGWYRQAPGKERELVAAISYSGGSTNYADSVKGRFTISRDNAKNTVYLQMNSLKPEDTAVYYCNAGGTVIWAWYGPVYSWGQGTQVTVSS”, for which the “polyreactivity (PSR sort gate)” value was “low polyreactivity”.
Next, “QVQLVESGGGLVQAGGRLRLSCAASGFTFAYYAMGWYRQAPGKERELVAAIRWSGTRTYYADSVKGRFTISRDHAKNTVYLQMNSLKPEDTAVYYCAKGIWYGTSGYYYWGQGTQVTVSS”: “high polyreactivity”; “QVQLVESGGGLVQAGGRLRLSCAASGFTFLGSAMGWYRQAPGKERELVAAISSSGGSTYYADSVKGRFTISRDNAKNTVYLQMNSLKPEDTAVYYCAAYVAVPPSDYDYWGQGTQVTVSS”: “high polyreactivity”; “QVQLVESGGGLVQAGGRLRLSCAASGFTFSVYPMGWYIQAPGKERELVAAISWSGGSTYYADSVKGRFTISRDNAKNTVYVQMNSLKPEDTAVYYCNAYFSYKYRYPEDYWGQGTQVTVSS”: “high polyreactivity”.
Next, “QVQLVESGGGLVQAGGRLRLSCAASGGIFVSYAMGWYRQSPGKEREMVAAITSGGGTSYADSVKGRFTISRDNAKNTVYLQMNSLKPEDTEVYYCAARFMWSVFGRKGGYWGQGTQVTVSS”: “low polyreactivity”; “QVQLVESGGGLVQAGGRLRLSCAASGGLLDIYVMGWYRQAPGKERELVAAITTRGGSTFYADSVKGRFTISRDNAKNTVYLQMNSLIPEDTAVYYCNKRLLVSRSSAQAYGYWGQGTQVTVSS”: “high polyreactivity”; “QVQLVESGGGLVQAGGRLRLSCAASGGTFSKNAIGWYRQAPGKEREFVAAISSTGGDTTYYADSVKGRFTISRDNAKNTVYLQMNSVKPEDTAFYYCNSDYIFWPWYDYWGQGTQVTVSS”: “low polyreactivity”.
In the case of “QVQLVESGGGLVQAGGRLRLSCAASGGWYRQAPGKERELVAAISWRDSSTYYADSVKGRFTISRDNAKNTVYLQMNSLKPEDTAVYYCAVRAYPWPEYYYWGQGTQVTVSS” it was “low polyreactivity”; in that of “QVQLVESGGGLVQAGGRLRLSCAASGIIFSYYAMGWYRQAPGKERELVAAISWGGGSTYYADSVKGRFTISRDYAKNTVYLQMNSLKPEDTAVYYCAADYFDFFTGYEMGYWGQGTKVTVSS”, “high polyreactivity”.
As to “QVQLVESGGGLVQAGGRLRLSCAASGIIFYGYAMGWYRQAPGKERELVAAITSYDGSTYYADSVKGRFTISRDNEKNTVYLQMNILKPEDTAFYYCAADYSTYEGWYWFDYWGQGTQVTVSS”, the “polyreactivity (PSR sort gate)” value is recorded as “high polyreactivity”.
In the case of “QVQLVESGGGLVQAGGRLRLSCAASGIILGRYAMGWDRQAPGKERELVAAISIRGTRTYYADSVKGRFTISRDNAKNTVYLQLNSLKPEDTAVSYCAAKTVLWGQGTQVTVSS” it was “high polyreactivity”.
Next, “QVQLVESGGGLVQAGGRLRLSCAASGIISSAYAIGWYRQAPGKERELVAAISSGGSTKYADSVKGRFTISRDNAKNTVYLQMNSLKPEDTAVYYCAARTRYPYKVFGYWGQGTQVTVSS”: “high polyreactivity”.

The values above are taken from the nanobody polyreactivity screen of Harvey et al. (2022).
